Reference: PMC1635251

B1: Hex-S3R pentamer, 3'-shortened (ssRNA)
RNA: UCGUG
B2: Hex-S3R pentamer, 5'-shortened (ssRNA)
RNA: CGUGU
B3: Hex-S1D-PS (XNA)
strand: CGACCG
modifications: phosphorothioate
B4: Hex-S3D-PS (XNA)
DNA: TCGTGT
modifications: phosphorothioate
B5: Hex-S3D-2'OMe (XNA)
DNA: TCGTGT
modifications: fully 2'-OMe
B6: Hex-S1D-2'OMe (XNA)
strand: CGACCG
modifications: fully 2'-OMe
B7: 4-thioU-Hex-S3R (XNA)
RNA: UCGUGU
modifications: 4-thio-U at position 4
B8: Hex-S3D-LNA (XNA)
DNA: TCGTGT
modifications: LNA at position 1
B9: Hex-S3D (ssDNA)
DNA: TCGTGT
B10: Hex-S1D (ssDNA)
DNA: CGACCG
B11: Hex-S3R (ssRNA)
RNA: UCGUGU

The binders below were run against T1, HIV-1 reverse transcriptase p66/p51 (HIV-1, UniProt P03366;P03366 600-1159;600-1039) (assay: filter binding).
B1: no binding.
B2: no binding.

The binders below were run against HIV-2 reverse transcriptase (HIV-2, UniProt P04584;P04584 613-1171;613-1051) (assay: filter binding).
HIV-2 reverse transcriptase, sequence (P04584 613-1171, chain 1 of 2): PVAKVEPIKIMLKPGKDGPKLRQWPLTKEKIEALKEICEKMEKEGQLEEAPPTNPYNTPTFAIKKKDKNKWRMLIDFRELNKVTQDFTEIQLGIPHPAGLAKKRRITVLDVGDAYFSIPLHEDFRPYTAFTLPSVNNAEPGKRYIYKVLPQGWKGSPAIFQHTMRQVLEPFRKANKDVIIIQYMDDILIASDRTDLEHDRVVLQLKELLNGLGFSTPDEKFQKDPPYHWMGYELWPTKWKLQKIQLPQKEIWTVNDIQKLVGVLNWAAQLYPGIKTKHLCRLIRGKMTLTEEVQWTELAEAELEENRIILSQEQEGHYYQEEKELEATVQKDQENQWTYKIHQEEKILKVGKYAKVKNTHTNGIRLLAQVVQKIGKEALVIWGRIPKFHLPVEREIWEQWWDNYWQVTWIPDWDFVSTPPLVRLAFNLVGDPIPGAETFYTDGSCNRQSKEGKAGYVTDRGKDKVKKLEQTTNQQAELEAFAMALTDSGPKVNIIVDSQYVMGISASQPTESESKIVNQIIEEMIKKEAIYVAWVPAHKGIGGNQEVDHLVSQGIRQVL
HIV-2 reverse transcriptase, sequence (P04584 613-1051, chain 2 of 2): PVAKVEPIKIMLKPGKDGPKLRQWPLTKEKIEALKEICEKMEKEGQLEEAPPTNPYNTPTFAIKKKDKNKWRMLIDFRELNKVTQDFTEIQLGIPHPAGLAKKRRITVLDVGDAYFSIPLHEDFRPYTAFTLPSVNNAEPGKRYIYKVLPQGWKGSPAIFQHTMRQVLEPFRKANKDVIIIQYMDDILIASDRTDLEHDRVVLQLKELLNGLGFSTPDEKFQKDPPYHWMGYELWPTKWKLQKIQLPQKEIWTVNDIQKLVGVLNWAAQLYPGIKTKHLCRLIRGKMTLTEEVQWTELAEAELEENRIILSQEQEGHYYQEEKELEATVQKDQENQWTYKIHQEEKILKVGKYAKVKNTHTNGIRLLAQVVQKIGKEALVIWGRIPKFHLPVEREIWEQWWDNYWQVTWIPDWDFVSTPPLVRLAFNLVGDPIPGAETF
In the case of B3, the binding signal is reported as 6.6 ± 1.7 relative binding (unit not printed).
B4 was tested, and the binding signal was 24.9 ± 3.6 relative binding (unit not printed).

Molecular target: T1, HIV-1 reverse transcriptase p66/p51
Test: filter binding
Remark: another data set of the same source
In the case of B5, the binding signal is reported as 2 ± 0.1 relative binding (unit not printed).
For B6, the binding signal was 0.5 ± 0.1 relative binding (unit not printed).
With B7 the binding signal was 9.8 ± 0.5 relative binding (unit not printed).
In the case of B8, the binding signal is reported as 4.3 ± 0.4 relative binding (unit not printed).
In the case of B9, the binding signal is reported as 8.1 ± 1 relative binding (unit not printed).
In the case of B3, the binding signal is reported as 18.3 ± 6 relative binding (unit not printed).
In the case of B10, the binding signal is reported as 5.8 ± 0.6 relative binding (unit not printed).
In the case of B4, the binding signal is reported as 52.8 ± 9.8 relative binding (unit not printed).

Molecular target: T1, HIV-1 reverse transcriptase p66/p51
Test: filter binding
Remark: another data set of the same source
For B11, the Kd was 5.3 ± 0.5 µM.
